Sequences and labels used below:
B2: FlgI (natural protein, UniProt P15930 20-365, looked up)
chain: ERIRDLTSVQGVRENSLIGYGLVVGLDGTGDQTTQTPFTTQTLNNMLSQLGITVPTGTNMQLKNVAAVMVTASYPPFARQGQTIDVVVSSMGNAKSLRGGTLLMTPLKGVDSQVYALAQGNILVGGAGASAGGSSVQVNQLNGGRITNGAIIERELPTQFGAGNTINLQLNDEDFTMAQQITDAINRARGYGSATALDARTVQVRVPSGNSSQVRFLADIQNMEVNVTPQDAKVVINSRTGSVVMNREVTLDSCAVAQGNLSVTVNRQLNVNQPNTPFGGGQTVVTPQTQIDLRQSGGSLQSVRSSANLNSVVRALNALGATPMDLMSILQSMQSAGCLRAKLEII
notes: FlgI, the periplasmic protein that forms the P ring, Salmonella enterica serovar Typhimurium; made as a precursor with a cleavable N-terminal signal peptide; 26 subunits form the P ring (C26 symmetry); Domains: FlgI-OR (1-11 and 160-230), FlgI-IRU (12-159), FlgI-IRL (231-346); also called P ring protein; I0; source: endogenous, Salmonella HK1002 cells; in the hook-basal body (HBB) purified by …

The series “FlgI” addresses B2. Briefly: cryo-EM structure; LP ring part of hook-basal body (HBB) particle images, C26 symmetry applied, 3.5 Å; HBB purified from Salmonella HK1002; final buffer 20 mM Tris-HCl pH 8.0, 150 mM NaCl, 0.05% Triton X-100. The following applies: both partners purified.
Series [1] concerns the molecule itself. The series is described as above.

As usually defined, the stoichiometry N is a count of units in the complex or per binding partner.

B1: FlgH (natural protein, UniProt P0A1N8 22-232, looked up)
chain: CAWIPAKPLVQGATTAQPIPGPVPVANGSIFQSAQPINYGYQPLFEDRRPRNIGDTLTIVLQENVSASKSSSANASRDGKTSFGFDTVPRYLQGLFGNSRADMEASGGNSFNGKGGANASNTFSGTLTVTVDQVLANGNLHVVGEKQIAINQGTEFIRFSGVVNPRTISGSNSVPSTQVADARIEYVGNGYINEAQNMGWLQRFFLNLSPM
notes: FlgH, the lipoprotein that forms the L ring, Salmonella enterica serovar Typhimurium; made as a precursor with a cleavable N-terminal signal peptide; the atomic model holds the whole 211 residues of FlgH; 26 subunits form the L ring (C26 symmetry); also called L ring protein; H0; source: endogenous, Salmonella HK1002 cells; in the hook-basal body (HBB) purified by sucrose density-gradient …
As for B1, in the series with FlgI, the binding result is on record as “binds”. Moreover, in series [1], the “stoichiometry N” value turned out to be 26.
Consider B2, for which, in series [1], the “stoichiometry N” value is 26.

These data come from publication PMC8298488, “Structure of the molecular bushing of the bacterial flagellar motor” (Nature Communications, 2021).
